# T1: U-STAT1 (purified full-length unphosphorylated STAT1) (UniProt P42224 1-750)
# T1 construct: also called Full-length STAT1
# T1 sequence (looked up): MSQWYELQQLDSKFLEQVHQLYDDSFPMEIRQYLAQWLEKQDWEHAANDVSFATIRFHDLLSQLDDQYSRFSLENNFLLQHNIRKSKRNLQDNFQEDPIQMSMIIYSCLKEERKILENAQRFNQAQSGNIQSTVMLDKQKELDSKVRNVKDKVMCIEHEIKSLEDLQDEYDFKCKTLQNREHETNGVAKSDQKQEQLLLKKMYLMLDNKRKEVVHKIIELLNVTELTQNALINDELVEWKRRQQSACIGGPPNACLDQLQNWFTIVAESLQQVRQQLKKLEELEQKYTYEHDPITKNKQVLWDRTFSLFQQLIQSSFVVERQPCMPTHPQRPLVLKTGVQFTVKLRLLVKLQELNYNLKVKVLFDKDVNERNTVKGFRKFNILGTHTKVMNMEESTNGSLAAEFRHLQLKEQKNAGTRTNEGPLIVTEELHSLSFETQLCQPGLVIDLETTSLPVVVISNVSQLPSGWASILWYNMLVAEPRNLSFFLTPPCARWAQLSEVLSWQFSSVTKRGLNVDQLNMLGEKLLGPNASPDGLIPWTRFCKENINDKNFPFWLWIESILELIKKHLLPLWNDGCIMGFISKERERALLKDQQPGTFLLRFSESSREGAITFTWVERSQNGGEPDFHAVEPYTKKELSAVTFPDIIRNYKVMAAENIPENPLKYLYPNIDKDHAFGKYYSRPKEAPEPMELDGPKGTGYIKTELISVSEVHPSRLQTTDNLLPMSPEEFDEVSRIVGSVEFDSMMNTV
# Key:
# [1] = target: T1, U-STAT1 (purified full-length …); assay: fluorescence polarisation; conditions: both partners purified
# [2] = target: T1, U-STAT1 (purified full-length …); assay: ITC; conditions: both partners purified
Binder,IC50 [1] [nM],Kd [2] [nM],stoichiometry N [2]
MWSVFIHGHDGSNKGSK (domain or fragment) [GB1-018^T3],17800,> 10000,–
YDKPH (also called pYDKPH; pIFNGR 5-mer) [pIFNGR1 5-mer peptide],–,7600,–
MWSVFIHGHDGSNKGSKTYTS (domain or fragment) [GB1-018^T2],930,235,–
GB1-018 (natural protein) MSSKGGSSGGMWSVFIHGHDGSNKGSKTYTSGGGGMWGGGSSSGVKSGVNGGVKSGTGKI,1260,291,1.02

# — publication doi:10.1101/2021.07.17.452491 (bioRxiv, 2021)
